In PMC13649712, “Role of PER-WDR5 interactions in the mammalian circadian clock” (Nature Communications, 2026):

B1: mouse CRY1 1-496 (PHR) (domain or fragment)
chain: MGVNAVHWFRKGLRLHDNPALKECIQGADTIRCVYILDPWFAGSSNVGINRWRFLLQCLEDLDANLRKLNSRLFVIRGQPADVFPRLFKEWNITKLSIEYDSEPFGKERDAAIKKLATEAGVEVIVRISHTLYDLDKIIELNGGQPPLTYKRFQTLVSKMEPLEMPADTITSDVIGKCMTPLSDDHDEKYGVPSLEELGFDTDGLSSAVWPGGETEALTRLERHLERKAWVANFERPRMNANSLLASPTGLSPYLRFGCLSCRLFYFKLTDLYKKVKKNSSPPLSLYGQLLWREFFYTAATNNPRFDKMEGNPICVQIPWDKNPEALAKWAEGRTGFPWIDAIMTQLRQEGWIHHLARHAVACFLTRGDLWISWEEGMKVFEELLLDADWSINAGSWMWLSCSSFFQQFFHCYCPVGFGRRTDPNGDYIRRYLPVLRGFPAKYIYDPWNAPEGIQKVAKCLIGVNYPKPMVNHAEASRLNIERMKQIYQQLSRYRG
notes: pCoofy27; tag-free after cleavage; also called CRY1-PHR
B2: mouse CRY2-PHR (1-512) (domain or fragment)
chain: MAAAAVVAATVPAQSMGADGASSVHWFRKGLRLHDNPALLAAVRGARCVRCVYILDPWFAASSSVGINRWRFLLQSLEDLDTSLRKLNSRLFVVRGQPADVFPRLFKEWGVTRLTFEYDSEPFGKERDAAIMKMAKEAGVEVVTENSHTLYDLDRIIELNGQKPPLTYKRFQALISRMELPKKPAVAVSSQQMESCRAEIQENHDDTYGVPSLEELGFPTEGLGPAVWQGGETEALARLDKHLERKAWVANYERPRMNANSLLASPTGLSPYLRFGCLSCRLFYYRLWDLYKKVKRNSTPPLSLFGQLLWREFFYTAATNNPRFDRMEGNPICIQIPWDRNPEALAKWAEGKTGFPWIDAIMTQLRQEGWIHHLARHAVACFLTRGDLWVSWESGVRVFDELLLDADFSVNAGSWMWLSCSAFFQQFFHCYCPVGFGRRTDPSGDYIRRYLPKLKGFPSRYIYEPWNAPESVQKAAKCIIGVDYPRPIVNHAETSRLNIERMKQIYQQLSRY
notes: Cryptochrome-2 (CRY2), mouse, photolyase homology region, residues 1-512; pCoofy27; tag-free after cleavage; also called CRY2 1-512

Target: preformed PER1 1013-1291/WDR5 22-334 complex (mouse, UniProt O35973 1013-1291; P61965 22-334)
Test: SEC; PER1 1013-1291, CRY1 1-496 or CRY2 1-512 and WDR5 22-334: equimolar mixture (60 min, 4 °C) or PER1/WDR5 complex pre-formed overnight and then equimolar CRY added for 60 min; dimeric complexes run for comparison; S200 10/300; 25 mM HEPES pH 7.5, 300 mM NaCl, 5% glycerol, 1 mM DTT
Details: both partners purified

| Binder | binding result |
| --- | --- |
| B1 | binds |
| B2 | binds |
